Data set [1] has as its system HeLa Kyoto. The experiment in a line: thermal stability score vs G1/S (z-score of summed log2 fold changes over temperatures); higher = more thermally stable than in G1/S.
The test system of data set [2] is HeLa Kyoto. The experiment in a line: melting temperature (median over replicates), in situ; higher = more thermally stable.
For data set [3], the system named is HeLa Kyoto. The experiment in a line: solubility change mitosis vs G1/S (difference of NP-40 vs SDS log2 ratios) (log2 ratio difference); higher = more soluble in mitosis.
Data set [4] has as its system HeLa Kyoto. Briefly: solubility in G1/S (NP-40 vs SDS abundance) (log2 ratio); higher = more soluble. As to conditions: cell cycle stage: G1/S.
[5] abbreviates: cell cycle stage: early G1 (4.5 h after nocodazole release).

The source of these data is the supplement of paper PMC5998384.
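Throughout, for melting temperature (median over replicates), in situ: HeLa Kyoto cells synchronized by double thymidine or nocodazole block, proteins quantified by TMT10plex mass spectrometry, three independent biological replicates.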
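Throughout, for solubility change mitosis vs G1/S (difference of NP-40 vs SDS log2 ratios): synchronized HeLa Kyoto cells (double thymidine block for G1/S, nocodazole release for mitosis), protein amounts in NP-40 versus SDS lysates quantified by mass spectrometry, three biological replicates.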
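Throughout, for solubility in G1/S (NP-40 vs SDS abundance): HeLa Kyoto cells arrested at G1/S by double thymidine block, proteins quantified by TMT10plex mass spectrometry in mild NP-40 versus SDS extracts, three biological replicates.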
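Throughout, for thermal stability score vs G1/S (z-score of summed log2 fold changes over temperatures): synchronized HeLa Kyoto cells, proteins quantified by TMT10plex mass spectrometry, three biological replicates, mitosis taken 0.5 h after nocodazole release, G1/S directly after double thymidine block.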

As to “MQNSHMDEYRNSSNGSTGNSSEVVVEHPTDFSTEIMNVTEMEQSPDDSPNVNASTEETEMASAVDLPVTLTETEANFPPEYEKFWKTVENNPQDFTGWVYLLQYVEQENHLMAARKAFDRFFIHYPYCYGYWKKYADLEKRHDNIKPSDEVYRRGLQAIPLSVDLWIHYINFLKETLDPGDPETNNTIRGTFEHAVLAAGTDFRSDRLWEMYINWENEQGNLREVTAIYDRILGIPTQLYSHHFQRFKEHVQNNLPRDLLTGEQFIQLRRELASVNGHSGDDGPPGDDLPSGIEDITDPAKLITEIENMRHRIIEIHQEMFNYNEHEVSKRWTFEEGIKRPYFHVKPLEKAQLKNWKEYLEFEIENGTHERVVVLFERCVISCALYEEFWIKYAKYMENHSIEGVRHVFSRACTIHLPKKPMVHMLWAAFEEQQGNINEARNILKTFEECVLGLAMVRLRRVSLERRHGNLEEAEHLLQDAIKNAKSNNESSFYAVKLARHLFKIQKNLPKSRKVLLEAIERDKENTKLYLNLLEMEYSGDLKQNEENILNCFDKAVHGSLPIKMRITFSQRKVEFLEDFGSDVNKLLNAYDEHQTLLKEQDSLKRKAENGSEEPEEKKAHTEDTTSSSTQMIDGDLQANQAVYNYSAWYQYNYQNPWNYGQYYPPPPT [PRPF39]”, the thermal stability score in the data set on HeLa Kyoto [1] (setting [5]) was determined as 1.54; with HeLa Kyoto [1] (cell cycle stage: mitosis) it was 2.13. Further, the melting temperature with HeLa Kyoto [2] (cell cycle stage: G1/S) turned out to be 47.2 °C; in the data set with HeLa Kyoto [2] (cell cycle stage: mitosis) it was 50.4 °C. The “solubility change mitosis (log2)” value in the data set on HeLa Kyoto [3] is -0.157. The “solubility in G1/S (log2)” value in the data set with HeLa Kyoto [4] stood at 0.0352.
Turning to “MQQDGLGVGTRNGSGKGRSVHPSWPWCAPRPLRYFGRDARARRAQTAAMALLAGGLSRGLGSHPAAAGRDAVVFVWLLLSTWCTAPARAIQVTVSNPYHVVILFQPVTLPCTYQMTSTPTQPIVIWKYKSFCRDRIADAFSPASVDNQLNAQLAAGNPGYNPYVECQDSVRTVRVVATKQGNAVTLGDYYQGRRITITGNADLTFDQTAWGDSGVYYCSVVSAQDLQGNNEAYAELIVLGRTSGVAELLPGFQAGPIEDWLFVVVVCLAAFLIFLLLGICWCQCCPHTCCCYVRCPCCPDKCCCPEALYAAGKAATSGVPSIYAPSTYAHLSPAKTPPPPAMIPMGPAYNGYPGGYPGDVDRSSSAGGQGSYVPLLRDTDSSVASEVRSGYRIQASQQDDSMRVLYYMEKELANFDPSRPGPPSGRVERAMSEVTSLHEDDWRSRPSRGPALTPIRDEEWGGHSPRSPRGWDQEPAREQAGGGWRARRPRARSVDALDDLTPPSTAESGSRSPTSNGGRSRAYMPPRSRSRDDLYDQDDSRDFPRSRDPHYDDFRSRERPPADPRSHHHRTRDPRDNGSRSGDLPYDGRLLEEAVRKKGSEERRRPHKEEEEEAYYPPAPPPYSETDSQASRERRLKKNLALSRESLVV”, the thermal stability score in the data set on HeLa Kyoto [1] (setting [5]) was -3.76; with HeLa Kyoto [1] (cell cycle stage: mitosis) it was -1.62. For the same sequence, the melting temperature in the data set with HeLa Kyoto [2] (cell cycle stage: G1/S) turned out to be 53.8 °C; in the data set with HeLa Kyoto [2] (cell cycle stage: mitosis), 54.6 °C. The “solubility change mitosis (log2)” value with HeLa Kyoto [3] stood at 0.133. For the same sequence, in the data set on HeLa Kyoto [4], the “solubility in G1/S (log2)” value is -0.186.
Take “MQRASRLKRELHMLATEPPPGITCWQDKDQMDDLRAQILGGANTPYEKGVFKLEVIIPERYPFEPPQIRFLTPIYHPNIDSAGRICLDVLKLPPKGAWRPSLNIATVLTSIQLLMSEPNPDDPLMADISSEFKYNKPAFLKNARQWTEKHARQKQKADEEEMLDNLPEAGDSRVHNSTQKRKASQLVGIEKKFHPDV [UBE2T]”: the figures for the thermal stability score in the data set on HeLa Kyoto [1] (setting [5]) and with HeLa Kyoto [1] (cell cycle stage: mitosis) were -0.273 and -0.0505, respectively. Also, the results for the melting temperature in the data set with HeLa Kyoto [2] (cell cycle stage: G1/S) and in the data set on HeLa Kyoto [2] (cell cycle stage: mitosis) were 49.2 °C and 49.9 °C, respectively. Moreover, the “solubility change mitosis (log2)” value in the data set with HeLa Kyoto [3] was 0.118. Also, the “solubility in G1/S (log2)” value with HeLa Kyoto [4] came out at 0.66.
For the sequence “MQTPVNIPVPVLRLPRGPDGFSRGFAPDGRRAPLRPEVPEIQECPIAQESLESQEQRARAALRERYLRSLLAMVGHQVSFTLHEGVRVAAHFGATDLDVANFYVSQLQTPIGVQAEALLRCSDIISYTFKP [GEMIN7]”, the thermal stability score in the data set with HeLa Kyoto [1] (setting [5]) is -0.755; in the data set with HeLa Kyoto [1] (cell cycle stage: mitosis) it was -0.344. This sequence displayed a melting temperature in the data set on HeLa Kyoto [2] (cell cycle stage: G1/S) of 53 °C. In addition, the “solubility change mitosis (log2)” value in the data set with HeLa Kyoto [3] is -0.0302. Further, in the data set on HeLa Kyoto [4], the “solubility in G1/S (log2)” value was -0.401.
For the sequence “MRERIWAPPLLLLLPLLLPPPLWGGPPDSPRRELELEPGPLQPFDLLYASGAAAYYSGDYERAVRDLEAALRSHRRLREIRTRCARHCAARHPLPPPPPGEGPGAELPLFRSLLGRARCYRSCETQRLGGPASRHRVSEDVRSDFQRRVPYNYLQRAYIKLNQLEKAVEAAHTFFVANPEHMEMQQNIENYRATAGVEALQLVDREAKPHMESYNAGVKHYEADDFEMAIRHFEQALREYFVEDTECRTLCEGPQRFEEYEYLGYKAGLYEAIADHYMQVLVCQHECVRELATRPGRLSPIENFLPLHYDYLQFAYYRVGEYVKALECAKAYLLCHPDDEDVLDNVDYYESLLDDSIDPASIEAREDLTMFVKRHKLESELIKSAAEGLGFSYTEPNYWIRYGGRQDENRVPSGVNVEGAEVHGFSMGKKLSPKIDRDLREGGPLLYENITFVYNSEQLNGTQRVLLDNVLSEEQCRELHSVASGIMLVGDGYRGKTSPHTPNEKFEGATVLKALKSGYEGRVPLKSARLFYDISEKARRIVESYFMLNSTLYFSYTHMVCRTALSGQQDRRNDLSHPIHADNCLLDPEANECWKEPPAYTFRDYSALLYMNDDFEGGEFIFTEMDAKTVTASIKPKCGRMISFSSGGENPHGVKAVTKGKRCAVALWFTLDPLYRELERIQADEVIAILDQEQQGKHELNINPKDEL [P3H2]”, the thermal stability score in the data set on HeLa Kyoto [1] (setting [5]) was found to be 4.77; in the data set on HeLa Kyoto [1] (cell cycle stage: mitosis), 5.82. In addition, the melting temperature with HeLa Kyoto [2] (cell cycle stage: G1/S) worked out at 53.7 °C; in the data set with HeLa Kyoto [2] (cell cycle stage: mitosis), 53.9 °C. Further, the “solubility change mitosis (log2)” value in the data set with HeLa Kyoto [3] was -0.0732. Moreover, the “solubility in G1/S (log2)” value in the data set with HeLa Kyoto [4] is -0.176.
